Reference: article PMC5172458

Substrate: O=c1ccn([C@H]2C[C@H](O)[C@@H](COP(=O)(O)O)O2)c(=O)[nH]1
Assay: purified protein
Assay type: biochemical, Escherichia coli
Conditions: 25 °C, CH2H4folate fixed at 50 μM, TCEP

B1: ecTSase (Escherichia coli thymidylate synthase) (Escherichia coli K-12; H147V) (protein)
chain: MKQYLELMQKVLDEGTQKNDRTGTGTLSIFGHQMRFNLQDGFPLVTTKRCHLRSIIHELLWFLQGDTNIAYLHENNVTIWDEWADENGDLGPVYGKQWRAWPTPDGRHIDQITTVLNQLKNDPDSRRIIVSAWNVGELDKMALAPCVAFFQFYVADGKLSCQLYQRSCDVFLGLPFNIASYALLVHMMAQQCDLEVGDFVWTGGDTHLYSNHMDQTHLQLSREPRPLPKLIIKRKPESIFDYRFEDFEIEGYDPHPGIKAPVAI
- Km: 4.0 ± 1.3 µM
- kcat: 0.61 ± 0.04 s⁻¹
